# Experimental data from IntAct's records for PubMed 19680263.
# B1: Complement factor H (Homo sapiens), P08603 (parent)
# chain: MRLLAKIICLMLWAICVAEDCNELPPRRNTEILTGSWSDQTYPEGTQAIYKCRPGYRSLGNVIMVCRKGEWVALNPLRKCQKRPCGHPGDTPFGTFTLTGGNVFEYGVKAVYTCNEGYQLLGEINYRECDTDGWTNDIPICEVVKCLPVTAPENGKIVSSAMEPDREYHFGQAVRFVCNSGYKIEGDEEMHCSDDGFWSKEKPKCVEISCKSPDVINGSPISQKIIYKENERFQYKCNMGYEYSERGDAVCTESGWRPLPSCEEKSCDNPYIPNGDYSPLRIKHRTGDEITYQCRNGFYPATRGNTAKCTSTGWIPAPRCTLKPCDYPDIKHGGLYHENMRRPYFPVAVGKYYSYYCDEHFETPSGSYWDHIHCTQDGWSPAVPCLRKCYFPYLENGYNQNYGRKFVQGKSIDVACHPGYALPKAQTTVTCMENGWSPTPRCIRVKTCSKSSIDIENGFISESQYTYALKEKAKYQCKLGYVTADGETSGSITCGKDGWSAQPTCIKSCDIPVFMNARTKNDFTWFKLNDTLDYECHDGYESNTGSTTGSIVCGYNGWSDLPICYERECELPKIDVHLVPDRKKDQYKVGEVLKFSCKPGFTIVGPNSVQCYHFGLSPDLPICKEQVQSCGPPPELLNGNVKEKTKEEYGHSEVVEYYCNPRFLMKGPNKIQCVDGEWTTLPVCIVEESTCGDIPELEHGWAQLSSPPYYYGDSVEFNCSESFTMIGHRSITCIHGVWTQLPQCVAIDKLKKCKSSNLIILEEHLKNKKEFDHNSNIRYRCRGKEGWIHTVCINGRWDPEVNCSMAQIQLCPPPPQIPNSHNMTTTLNYRDGEKVSVLCQENYLIQEGEEITCKDGRWQSIPLCVEKIPCSQPPQIEHGTINSSRSSQESYAHGTKLSYTCEGGFRISEENETTCYMGKWSSPPQCEGLPCKSPPEISHGVVAHMSDSYQYGEEVTYKCFEGFGIDGPAIAKCLGEKWSHPPSCIKTDCLSLPSFENAIPMGEKKDVYKAGEQVTYTCATYYKMDGASNVTCINSRWTGRPTCRDTSCVNPPTVQNAYIVSRQMSKYPSGERVRYQCRSPYEMFGDEEVMCLNGNWTEPPQCKDSTGKCGPPPPIDNGDITSFPLSVYAPASSVEYQCQNLYQLEGNKRITCRNGQWSEPPKCLHPCVISREIMENYNIALRWTAKQKLYSRTGESVEFVCKRGYRLSSRSHTLRTTCWDGKLEYPTCAKR
# partner: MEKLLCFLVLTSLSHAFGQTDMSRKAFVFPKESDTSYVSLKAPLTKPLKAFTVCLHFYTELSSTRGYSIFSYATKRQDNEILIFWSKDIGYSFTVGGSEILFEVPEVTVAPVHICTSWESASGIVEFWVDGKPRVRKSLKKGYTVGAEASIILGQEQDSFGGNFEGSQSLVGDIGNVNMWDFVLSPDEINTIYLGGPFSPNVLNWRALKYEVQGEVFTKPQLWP
# Variants of: B1
# Conditions: with crp_human CRP
row,effect of a mutation on the interaction,Variant
1,decreasing interaction strength,R1210C
2,decreasing interaction strength,V1197A
3,decreasing interaction strength,R1215G
4,decreasing interaction strength,W1183L

# Variants of: B1
# Conditions: with crp_human CRP
# Remark: another data set of the same source
row,effect of a mutation on the interaction,Variant
1,disrupting interaction strength,R1203E;R1206E;R1210S;K1230S;R1231A

# Variants of: B1
# Conditions: with crp_human CRP
# Remark: another data set of the same source
row,effect of a mutation on the interaction,Variant
1,disrupting interaction strength,R1203E;R1206E;R1210S;K1230S;R1231A
